Experimental data: patent US20070071773

Legend:
[1] = target: recombinant human IL-8/CXCL8 (UniProt P10145)
recombinant murine MIP-2 = target: T1, recombinant murine MIP-2 (UniProt P10889)
T1 sequence: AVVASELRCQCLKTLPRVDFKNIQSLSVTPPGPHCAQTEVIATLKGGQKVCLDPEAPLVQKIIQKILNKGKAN

Chain of recombinant human IL-8/CXCL8 (P10145 28-99): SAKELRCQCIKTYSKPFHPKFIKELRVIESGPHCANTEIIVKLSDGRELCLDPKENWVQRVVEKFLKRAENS

Substance: trypsin-like GAS protease (chemokine protease released into the culture supernatant of GAS strain JS95)
- IL-8 degradation (Western blot) [1]: JS95 supernatant effectively degraded IL-8
- MIP-2 degradation (dot blot) (recombinant murine MIP-2): The supernatant of JS95 degraded more than 80% of the recombinant MIP-2 protein
